The source of these data is PMC10397247.

Experiment in all cases: two-hybrid library CCmax;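 further: natural log of median RNA to DNA barcode read ratio; higher means stronger binding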
The target in assay [1] is T1, 4H428-AA.
T1 chain: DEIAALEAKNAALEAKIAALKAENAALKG
As to conditions: mean of both orientations.

Assay [2] has as its target T2, 4H189-AA.
T2 chain: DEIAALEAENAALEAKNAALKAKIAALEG
The conditions noted are these: mean of both orientations.

Assay [3] concerns the target T3, 4H3417-AA.
T3 chain: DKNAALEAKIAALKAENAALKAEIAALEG
As to conditions: mean of both orientations.

The target in assay [4] is T4, 4H2283-AA.
T4 chain: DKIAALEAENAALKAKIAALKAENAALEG
The conditions noted are these: mean of both orientations.

Assay [5] has as its target T5, 4H3666-AA.
T5 chain: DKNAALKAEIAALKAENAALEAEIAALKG
As to conditions: mean of both orientations.

Assay [6] addresses T6, 4H3102-AA.
T6 chain: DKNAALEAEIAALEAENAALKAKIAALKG
The conditions noted are these: mean of both orientations.

The target of assay [7] is T7, 4H3066-AA.
T7 chain: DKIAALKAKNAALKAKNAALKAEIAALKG
The conditions noted are these: mean of both orientations.

Assay [8] has as its target T8, 4H497-AA.
T8 chain: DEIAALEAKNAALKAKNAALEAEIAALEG
As to conditions: mean of both orientations.

For assay [9], the target named is T9, 4H971-AA.
T9 chain: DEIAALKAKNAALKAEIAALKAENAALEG
As to conditions: mean of both orientations.

Assay [10] addresses T10, 4H1348-AA.
T10 chain: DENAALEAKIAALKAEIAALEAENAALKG
The conditions noted are these: mean of both orientations.

Assay [11] deals with T11, P5-AA-12HGe-A.
T11 chain: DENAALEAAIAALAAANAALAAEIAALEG
The conditions noted are these: mean of both orientations.

For assay [12], the target named is T12, P5-AA-1HAA-Y.
T12 chain: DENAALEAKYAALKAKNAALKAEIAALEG
As to conditions: mean of both orientations.

Assay [13] concerns the target T13, P5-AA-1HAA-K.
T13 chain: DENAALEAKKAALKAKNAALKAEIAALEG
As to conditions: mean of both orientations.

The target of assay [14] is T14, P5-AA-12HGe-E.
T14 chain: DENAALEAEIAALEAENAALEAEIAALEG
The conditions noted are these: mean of both orientations.

Assay [15] concerns the target T15, P5-AA-12HGe-Y.
T15 chain: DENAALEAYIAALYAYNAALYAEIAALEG
The conditions noted are these: mean of both orientations.

Assay [16] deals with T16, 4H1142-AA.
T16 chain: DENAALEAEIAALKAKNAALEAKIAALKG

For assay [17], the target named is T17, 4H895-AA.
T17 chain: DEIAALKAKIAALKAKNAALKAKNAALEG
As to conditions: mean of both orientations.

The target of assay [18] is T18, O3-AA.
T18 chain: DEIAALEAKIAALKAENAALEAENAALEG
As to conditions: mean of both orientations.

For assay [19], the target named is T19, P6-AA-12HAA-V.
T19 chain: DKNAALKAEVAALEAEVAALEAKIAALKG
The conditions noted are these: mean of both orientations.

For assay [20], the target named is T20, P6-AA-12HAA-K.
T20 chain: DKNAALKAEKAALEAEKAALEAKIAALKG
The conditions noted are these: mean of both orientations.

For assay [21], the target named is T21, P6-AA-12HAA-E.
T21 chain: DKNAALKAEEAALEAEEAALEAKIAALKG
As to conditions: mean of both orientations.

Assay [22] has as its target T22, P6-AA-12HAA-S.
T22 chain: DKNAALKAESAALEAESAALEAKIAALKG
The conditions noted are these: mean of both orientations.

Assay [23] addresses T23, P6-AA-12HGe-M.
T23 chain: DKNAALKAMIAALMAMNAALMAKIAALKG
The conditions noted are these: mean of both orientations.

Assay [24] concerns the target T24, P6-AA-1HAA-R.
T24 chain: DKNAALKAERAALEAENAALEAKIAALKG
The conditions noted are these: mean of both orientations.

The target in assay [25] is T25, P6-AA-12HGe-T.
T25 chain: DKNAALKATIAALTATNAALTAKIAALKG
The conditions noted are these: mean of both orientations.

For assay [26], the target named is T26, P6-AA-1HGe-T.
T26 chain: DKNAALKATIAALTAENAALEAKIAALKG
As to conditions: mean of both orientations.

Assay [27] deals with T27, P6-AA-12HGe-R.
T27 chain: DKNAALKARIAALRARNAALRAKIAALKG
As to conditions: mean of both orientations.

Assay [28] addresses T28, 4H2947-AA.
T28 chain: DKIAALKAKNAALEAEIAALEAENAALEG
The conditions noted are these: mean of both orientations.

Assay [29] addresses T29, 4H3094-AA.
T29 chain: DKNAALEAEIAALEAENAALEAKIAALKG
The conditions noted are these: mean of both orientations.

Assay [30] deals with T30, 4H3974-AA.
T30 chain: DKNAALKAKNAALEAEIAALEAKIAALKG
As to conditions: mean of both orientations.

The target in assay [31] is T31, 4H3915-AA.
T31 chain: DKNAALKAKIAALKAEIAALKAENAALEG
As to conditions: mean of both orientations.

The target in assay [32] is T32, 4H2513-AA.
T32 chain: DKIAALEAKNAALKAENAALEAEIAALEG
The conditions noted are these: mean of both orientations.

Assay [33] addresses T33, 4H327-AA.
T33 chain: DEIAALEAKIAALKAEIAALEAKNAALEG
The conditions noted are these: mean of both orientations.

The target of assay [34] is T34, 4H2512-AA.
T34 chain: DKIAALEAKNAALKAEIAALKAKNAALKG
The conditions noted are these: mean of both orientations.

In assay [35] the target is T35, 4H369-AA.
T35 chain: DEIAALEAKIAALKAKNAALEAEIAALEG
As to conditions: mean of both orientations.

Assay [36] has as its target T36, 4H2935-AA.
T36 chain: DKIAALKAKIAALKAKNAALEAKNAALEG
As to conditions: mean of both orientations.

For assay [37], the target named is T37, 4H481-AA.
T37 chain: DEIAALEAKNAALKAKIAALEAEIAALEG
As to conditions: mean of both orientations.

Assay [38] concerns the target T38, 4H716-AA.
T38 chain: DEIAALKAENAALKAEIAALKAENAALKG
As to conditions: mean of both orientations.

For assay [39], the target named is T39, APC1015-AA.
T39 chain: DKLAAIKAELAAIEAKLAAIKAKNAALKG

The target of assay [40] is T40, 4H2290-AA.
T40 chain: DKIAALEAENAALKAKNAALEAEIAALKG
As to conditions: mean of both orientations.

The target in assay [41] is T41, APC8910-AA.
T41 chain: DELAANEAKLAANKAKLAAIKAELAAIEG
As to conditions: mean of both orientations.

For assay [42], the target named is T42, APC5383-AA.
T42 chain: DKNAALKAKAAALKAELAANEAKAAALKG
The conditions noted are these: mean of both orientations.

B1: 4H1064-AA (peptide)
chain: DENAALEAEIAALEAKIAALEAKNAALKG
Turning to B1, the interaction score in [1] was -1.04; in assay [2], -1.4; in assay [3], -1.43; in [4] it was -1.69; in assay [5] it was -1.27; in assay [6], -1.27. Also, the interaction score is -1.4 in [7], -1.3 in assay [8], -1.08 in [9] and 1.13 in assay [10].

B2: 4H3606-AA (peptide)
chain: DKNAALKAEIAALEAENAALEAKIAALKG
As to B2, the interaction score in assay [11] was found to be 0.833; in assay [12], 2.23; in [13], 2.15; in assay [14] it was 0.858; in assay [15] it was 2.52.

B3: 4H1142-AA (peptide)
chain: DENAALEAEIAALKAKNAALEAKIAALKG
B3 gave an interaction score in assay [16] of 0.123.

B4: 4H1257-AA (peptide)
chain: DENAALEAENAALKAKIAALKAEIAALEG
As for B4, the interaction score in [17] is -1.61.

B5: 4H171-AA (peptide)
chain: DEIAALEAENAALEAKIAALKAENAALEG
In assay [18], B5 showed an interaction score of -1.73.

B6: 4H1385-AA (peptide)
chain: DENAALEAKIAALKAKIAALKAEIAALEG
With B6, the interaction score in [19] came out at 2.15; in assay [20], 2.03; in assay [21], 2.36; in assay [22], 1.43.

B7: 4H1401-AA (peptide)
chain: DENAALEAKIAALKAKNAALKAEIAALEG
Regarding B7, the interaction score in assay [23] is 0.2; in [24] it was 1.83; in [25], 0.16; in assay [26], 2.05; in assay [27], -1.02.

B8: 4H249-AA (peptide)
chain: DEIAALEAENAALKAKNAALKAEIAALEG
Take B8: the interaction score in assay [28] was -1.55; in assay [29], -0.0288; in assay [30], -0.0812; in [31] it was -0.705.

B9: 4H1350-AA (peptide)
chain: DENAALEAKIAALKAEIAALEAKIAALKG
Consider B9, for which the interaction score in assay [32] was -1.31; in assay [33] it was 2.32; in assay [34], -0.538; in [35], 0.227; in assay [36], -0.765; in assay [37] it was 0.532.

B10: 4H1845-AA (peptide)
chain: DENAALKAKIAALEAKNAALEAKIAALEG
Take B10: the interaction score is -1.81 in assay [38]; -1.28 in assay [39]; -1.92 in assay [40]; -1.69 in assay [41]; -1.57 in [42].
